Assay results published in the supplement of paper PMC9112550, “Optimization of the antimicrobial peptide Bac7 by deep mutational scanning” (BMC Biology, 2022).

The sequences below were run on Escherichia coli TOP10 (assay: shrunken log2 fold change of peptide-encoding DNA abundance (4.5 h post-induction vs induction); higher = less antimicrobial activity (less host growth inhibition)). Conditions: time post-induction: 4.5 h; library: site-saturation at positions 5, 18, 19, 20.
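Note: peptides expressed intracellularly from a pBAD plasmid library in pooled LB shake-flask culture, induced with 0.3% L-arabinose, DNA abundance read by NGS, three biological replicates, DESeq2 with apeglm shrinkage.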

Sequence	shrunken log2 fold change
RRIRDRPPRLPRPRPRPRCMPRP	-0.158
RRIRTRPPRLPRPRPRPGTHPRP	-0.0792
RRIRARPPRLPRPRPRPLDFPRP	0.173
RRIRCRPPRLPRPRPRPRNLPRP	-0.222
RRIRNRPPRLPRPRPRPYKNPRP	-0.941
RRIRWRPPRLPRPRPRPESLPRP	0.412
RRIRQRPPRLPRPRPRPQKWPRP	0.0876
RRIRDRPPRLPRPRPRPMGCPRP	-0.000921
RRIRTRPPRLPRPRPRPLRIPRP	0.00602
RRIRLRPPRLPRPRPRPYSHPRP	-0.444
RRIRVRPPRLPRPRPRPAQTPRP	0.442
RRIRTRPPRLPRPRPRPSRRPRP	0.128
RRIRHRPPRLPRPRPRPLCTPRP	-0.247
RRIRCRPPRLPRPRPRPHDMPRP	-0.234
RRIRRRPPRLPRPRPRPIYIPRP	-0.184
RRIRGRPPRLPRPRPRPKMAPRP	0.0451
RRIRRRPPRLPRPRPRPVSEPRP	0.34
RRIRIRPPRLPRPRPRPGVSPRP	-0.351
RRIRERPPRLPRPRPRPMHKPRP	0.0621
RRIRQRPPRLPRPRPRPMGVPRP	-0.00411
RRIRFRPPRLPRPRPRPGGCPRP	0.432
RRIRCRPPRLPRPRPRPLTCPRP	-0.184
RRIRRRPPRLPRPRPRPSMWPRP	0.168
RRIRGRPPRLPRPRPRPKEGPRP	1.62
RRIRYRPPRLPRPRPRPYWHPRP	-0.451

Sequence	shrunken log2 fold change
RRIRVRPPRLPRPRPRPVANPRP	-0.0212
RRIRARPPRLPRPRPRPIWNPRP	-0.0575
RRIRSRPPRLPRPRPRPRIMPRP	-0.105
RRIRCRPPRLPRPRPRPQCPPRP	-0.399
RRIRHRPPRLPRPRPRPASFPRP	-0.215
RRIRIRPPRLPRPRPRPIYSPRP	-0.946
RRIRFRPPRLPRPRPRPEWMPRP	0.236
RRIRFRPPRLPRPRPRPWNEPRP	-0.173
RRIRMRPPRLPRPRPRPIEKPRP	-0.00199
RRIRARPPRLPRPRPRPVTAPRP	0.654
RRIRRRPPRLPRPRPRPQLVPRP	0.0448
RRIRVRPPRLPRPRPRPAWKPRP	0.106
RRIRMRPPRLPRPRPRPPETPRP	0.807
RRIRSRPPRLPRPRPRPLPTPRP	0.446
RRIRPRPPRLPRPRPRPHAEPRP	0.206
RRIRMRPPRLPRPRPRPTANPRP	0.921
RRIRNRPPRLPRPRPRPKYYPRP	-0.887
RRIRVRPPRLPRPRPRPQGLPRP	-0.29
RRIRPRPPRLPRPRPRPLIFPRP	-0.411
RRIRTRPPRLPRPRPRPLDTPRP	-0.566
RRIRQRPPRLPRPRPRPWLLPRP	-0.151
RRIRLRPPRLPRPRPRPKQNPRP	0.2
RRIRHRPPRLPRPRPRPYWDPRP	-0.849
RRIRSRPPRLPRPRPRPQPIPRP	0.000168
RRIRYRPPRLPRPRPRPYSIPRP	-0.264

Sequence	shrunken log2 fold change
RRIRKRPPRLPRPRPRPLAGPRP	0.286
RRIRERPPRLPRPRPRPTMGPRP	-0.253
RRIRFRPPRLPRPRPRPFHAPRP	-0.393
RRIRWRPPRLPRPRPRPAVNPRP	0.185
RRIRRRPPRLPRPRPRPGWLPRP	0.427
RRIRFRPPRLPRPRPRPGAYPRP	0.116
RRIRHRPPRLPRPRPRPWWKPRP	-0.0848
RRIRERPPRLPRPRPRPGMPPRP	-0.0315
RRIRVRPPRLPRPRPRPWAIPRP	-0.0122
RRIRARPPRLPRPRPRPDGIPRP	0.446
RRIRRRPPRLPRPRPRPWYWPRP	-0.039
RRIRMRPPRLPRPRPRPRCQPRP	0.00313
RRIRARPPRLPRPRPRPTHDPRP	0.645
RRIRFRPPRLPRPRPRPEEEPRP	0.78
RRIRLRPPRLPRPRPRPGFMPRP	-0.382
RRIRKRPPRLPRPRPRPQQIPRP	-0.248
RRIRFRPPRLPRPRPRPWPHPRP	-0.132
RRIRNRPPRLPRPRPRPLDEPRP	0.126
RRIRERPPRLPRPRPRPIARPRP	-0.0237
RRIRCRPPRLPRPRPRPHYWPRP	-0.783
RRIRVRPPRLPRPRPRPKMTPRP	-0.0628
RRIRDRPPRLPRPRPRPAMWPRP	1.24
RRIRFRPPRLPRPRPRPSKMPRP	-0.351
RRIRVRPPRLPRPRPRPRHRPRP	0.0675
RRIRGRPPRLPRPRPRPKFEPRP	0.411
